Laboratory results taken from patent publication US20260364215A1, “Radiopharmaceutical Compositions Targeting Ephrin Type-A Receptor 2 and Uses Thereof” (PeptiDream Inc., priority 2022, published 2026).
Numbered stars: 1 amine (or outer) side, 2 acyl side, 3 side chain; on linkers, the order of the positions; unused ones are H or OH. Bridge positions count the residues as written; N and C are the ends. Square brackets hold non-standard residues; d marks the D form. Side chains are listed from the residue outwards. Peptide text beside a SMILES is read from it. * marks the point of attachment. DOTA(Lu) = O=C1CN2CCN3CCN(CC(=O)*)CCN(CC2)CC(=O)[O][Lu]([O]1)[O]C(=O)C3; DOTA = O=C(O)CN1CCN(CC(=O)O)CCN(CC(=O)*)CCN(CC(=O)O)CC1; Trp(1-Me,7-Cl) = Cn1cc(C[C@H](N)C(=O)O)c2cccc(Cl)c21; dPhe(3-CONH2) = NC(=O)c1cccc(C[C@@H](N)C(=O)O)c1; Piperazinyl(4-CH2COOH) = O=C(O)CN1CCN(*)CC1; Trp(1-Me) = Cn1cc(C[C@H](N)C(=O)O)c2ccccc21; NMe3Pal = CN[C@@H](Cc1cccnc1)C(=O)O; NMeF = CN[C@@H](Cc1ccccc1)C(=O)O; hArg = N=C(N)NCCCC[C@H](N)C(=O)O; Gly(cBu) = N[C@H](C(=O)O)C1CCC1; NMeE = CN[C@@H](CCC(=O)O)C(=O)O; Aad = N[C@@H](CCCC(=O)O)C(=O)O; CO = O=C([*:1])[*:2]

Columns and labels:
[1] = biological target: T1, Recombinant Human EphA2 Fc Protein (Homo sapiens, UniProt P29317); assay: Interaction analysis (kinetics, KD) of peptides and conjugates against EphA2 by SPR, Biacore T200, single-cycle kinetics (Examples B15 and B22); format: binding; settings: conjugates, Biacore T200 according to Example B15, Table B16; read-out: SPR Kd
T1 construct: purchased Elabscience
How it was run: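 Biacore T200 SPR with Fc-tagged human EphA2 captured via anti-human antibody; running buffer HBS-P+ pH 7.4 with 1% DMSO, 25 °C. Five serial dilutions of peptide or conjugate run by single-cycle kinetics; KD from ka and kd after baseline subtraction.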

[2] = biological target: T2, EphA2 (Biotin-Avi-His-EphA2; Fc-EphA2 where the peptide had a biotin) (Homo sapiens, UniProt P29317); assay: Surface plasmon resonance (SPR) peptide binding, Biacore 8K, immobilized EphA2, single cycle kinetics (Example C7); settings: 25 °C, Langmuir 1:1
T2 construct: His; purchased SinoBiologicals 13926-H27H-B
Description: Example C7. Surface Plasmon Resonance (SPR)
For analysis of peptide binding, a Biacore 8K instrument was used utilizing a SA chip. Biotin-Avi-His-EphA2 (SinoBiologicals, 13926-H27H-B) was immobilized on the chip using streptavidin-biotin chemistry at 25 °C in HBS-P+ buffer (10 mM HEPES, 150 mM NaCl, 0.05% Tween-20, pH 7.4) to a level of 1000-2000 RU (dependent on the analyte molecular weight). […] A dilution series of peptides was prepared in this buffer with a final DMSO concentration of 0.1% with a top peptide concentration between 10-100 nM and 9 further 2-fold dilutions. The SPR analysis was run at 25 °C at a flow rate of 30 μL/min in HBS-P+ with 0.1% DMSO running buffer and with a 120 second association and 1,200 second dissociation using single cycle kinetics methodology. All data was analyzed using Biacore Insight Evaluation Software version 4. Data was fitted using a Langmuir 1:1 binding model.

[3] = Plasma stability (% remaining of test compound in CD-1 (ICR) mouse plasma at 37 °C; Example C1); format: in vitro ADME; settings: for % Remaining Mouse: 0 min; for remaining at 2 h, 2 µM: pH 7.4, 120 min; for half-life at 2 µM: pH 7.4, read-out: T1/2 (min) Mouse
Description: Example C1. Plasma Stability
The pooled frozen CD-1 (ICR) mouse plasma was thawed in a water bath at 37 °C prior to experiment. Plasma was centrifuged at 4000 rpm for 5 min and the clots were removed if any. pH was adjusted to 7.4±0.1 if required.
Plasma (98 μL) and test compounds (2 μL, 100 μM, in DMSO) or reference compound propantheline bromide (2 μL, 100 μM in 40% v/v MeOH/H2O) were added to the individual wells of a 96-well microtiter plate in duplicate. The plate was incubated at 37 °C. During the incubation, aliquots were withdrawn at 0, 10, 30, 60, 120, and 300 minutes. 100 μL 4% H3PO4 and 800 μL of stop solution (200 ng/mL tolbutamide and 200 ng/mL labetalol in 100% CH3CN) were added to precipitate unwanted proteins. After mixing thoroughly, the quenched aliquots were centrifuged at 4,000 rpm for 20 min. Aliquots (100 μL) of supernatant were transferred to a new plate. The samples were shaken at 800 rpm for 10 min before performing LC-MS/MS analysis.
The analytes were detected by a multiple reaction monitoring method using a SCIEX Triple Quad 6500+ system equipped with an ACQUITY UPLC HSS T3 column (100 Å, 1.8 μm, 2.1 mm×30 mm). Mobile phase A: water with 0.1% formic acid; Mobile phase B: CH3CN with 0.1% formic acid.
(§1) The % remaining of test compound after incubation in plasma was calculated using the following equation:
(§2) % Remaining=100×(PAR(t)/PAR(t0)), where PAR is the peak area ratio of analyte versus internal standard (IS)

[4] = Plasma stability (% remaining and T1/2 of test compound in human plasma; Table C1); format: in vitro ADME; settings: for % Remaining Human: 0 min; for remaining at 2 h: 120 min
Description: as §1, §2

T2 sequence (P29317 24-534 limits assumed): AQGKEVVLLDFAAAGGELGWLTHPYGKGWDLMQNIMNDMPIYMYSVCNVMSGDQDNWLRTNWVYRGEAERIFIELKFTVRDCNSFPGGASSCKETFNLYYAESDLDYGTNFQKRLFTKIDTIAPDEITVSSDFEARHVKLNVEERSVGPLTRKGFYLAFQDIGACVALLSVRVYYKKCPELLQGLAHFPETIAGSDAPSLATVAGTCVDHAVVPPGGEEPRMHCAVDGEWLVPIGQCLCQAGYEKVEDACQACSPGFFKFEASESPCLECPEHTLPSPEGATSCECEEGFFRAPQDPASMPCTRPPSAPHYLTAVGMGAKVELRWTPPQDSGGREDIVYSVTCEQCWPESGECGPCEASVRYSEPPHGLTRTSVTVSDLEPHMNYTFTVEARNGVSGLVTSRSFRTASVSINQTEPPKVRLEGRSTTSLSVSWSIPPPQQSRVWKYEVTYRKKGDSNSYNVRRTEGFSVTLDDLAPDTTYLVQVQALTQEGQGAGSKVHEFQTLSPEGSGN
T1 sequence (P29317 24-534 limits assumed): as above

SMILES	Kd [1]	KD [2]	% Remaining Mouse [3]	remaining at 2 h, 2 µM [3]	half-life at 2 µM [3]	half-life [4]	% Remaining Human [4]	remaining at 2 h [4]
CC(C)C[C@@H]1NC(=O)[C@H](CC(N)=O)NC(=O)[C@H](Cc2cccnc2)N(C)C(=O)[C@@H](C)NC(=O)CSC[C@@H](C(=O)N[C@H](CCCCNC(=O)CN2CCN3CCN4CCN(CC2)CC(=O)[O][Lu]([O]C(=O)C3)[O]C(=O)C4)C(N)=O)NC(=O)[C@H](CCCC(N)=O)NC(=O)[C@H]([C@@H](C)O)NC(=O)[C@H](Cc2cn(C)c3ccccc23)NC(=O)[C@H](CCCCNC(=O)N2CCN(CC(=O)O)CC2)NC(=O)[C@H](Cc2cn(C)c3ccccc23)NC(=O)[C@H](CCC(=O)O)N(C)C(=O)[C@H](CCCC(N)=O)NC1=O [PDC_EphA2-00007196-C302] ({CH2CO}-[dA][NMe3Pal]NL[Aad](NH2)[NMeE][Trp(1-Me)]K([CO-Piperazinyl(4-CH2COOH)])[Trp(1-Me)]T[Aad](NH2)C[dK](DOTA(Lu))-NH2; thioether N-12)	< 1 nM	3.74e-10 M⁻¹	100.0%	99.4%	> 289 min	> 4.82 h	100.0%	96.3%
CC(C)C[C@@H]1NC(=O)[C@H](CC(N)=O)NC(=O)[C@H](Cc2cccnc2)N(C)C(=O)[C@@H](C)NC(=O)CSC[C@@H](C(=O)N[C@H](CCCCNC(=O)CN2CCN(CC(=O)O)CCN(CC(=O)O)CCN(CC(=O)O)CC2)C(N)=O)NC(=O)[C@H](CCCCNC(=N)N)NC(=O)[C@H]([C@@H](C)O)NC(=O)[C@H](Cc2cn(C)c3ccccc23)NC(=O)[C@H](CCCCNC(=O)N2CCN(CC(=O)O)CC2)NC(=O)[C@H](Cc2cn(C)c3ccccc23)NC(=O)[C@H](CCC(=O)O)N(C)C(=O)[C@H](CCCC(N)=O)NC1=O.[Lu+3] [PDC_EphA2-00008010-C302] ({CH2CO}-[dA][NMe3Pal]NL[Aad](NH2)[NMeE][Trp(1-Me)]K([CO-Piperazinyl(4-CH2COOH)])[Trp(1-Me)]T[hArg]C[dK](DOTA)-NH2; thioether N-12)	< 1 nM	2.11e-10 M⁻¹	–	–	–	–	–	–
CC(C)C[C@@H]1NC(=O)[C@H](CC(N)=O)NC(=O)[C@H](Cc2cccnc2)N(C)C(=O)[C@@H](C)NC(=O)CSC[C@@H](C(=O)N[C@H](CCCCNC(=O)CN2CCN(CC(=O)O)CCN(CC(=O)O)CCN(CC(=O)O)CC2)C(N)=O)NC(=O)[C@H](CCCC(N)=O)NC(=O)[C@H]([C@@H](C)O)NC(=O)[C@H](Cc2cn(C)c3ccccc23)NC(=O)[C@H](CCCCNC(=O)N2CCN(CC(=O)O)CC2)NC(=O)[C@H](Cc2cn(C)c3ccccc23)NC(=O)[C@H](Cc2ccccc2)N(C)C(=O)[C@H](CCCC(N)=O)NC1=O.[Lu+3] [PDC_EphA2-00008093-C302] ({CH2CO}-[dA][NMe3Pal]NL[Aad](NH2)[NMeF][Trp(1-Me)]K([CO-Piperazinyl(4-CH2COOH)])[Trp(1-Me)]T[Aad](NH2)C[dK](DOTA)-NH2; thioether N-12)	< 1 nM	–	100.0%	101%	> 289 min	> 4.82 h	100.0%	102%
CC(C)C[C@@H]1NC(=O)[C@H](CC(N)=O)NC(=O)[C@H](Cc2cccnc2)N(C)C(=O)[C@@H](C)NC(=O)CSC[C@@H](C(=O)N[C@H](CCCCNC(=O)CN(C)C(=O)CN(C)C(=O)CN(C)C(=O)CN(C)C(=O)CN(C)C(=O)CN(C)C(=O)CN(C)C(=O)CN(C)C(=O)CN(C)C(=O)CN(C)C(=O)CCNC(=O)CN2CCN(CC(=O)O)CCN(CC(=O)O)CCN(CC(=O)O)CC2)C(N)=O)NC(=O)[C@H](CCCC(N)=O)NC(=O)[C@H]([C@@H](C)O)NC(=O)[C@H](Cc2cn(C)c3ccccc23)NC(=O)[C@H](CCCCNC(=O)N2CCN(CC(=O)O)CC2)NC(=O)[C@H](Cc2cn(C)c3ccccc23)NC(=O)[C@H](Cc2ccccc2)N(C)C(=O)[C@H](CCCC(N)=O)NC1=O.[Lu+3] [PDC_EphA2-00008093-C310]	< 1 nM	–	100.0%	107%	> 289 min	> 4.82 h	100.0%	99%
C[C@@H](O)[C@@H]1NC(=O)[C@H](Cc2cn(C)c3ccccc23)NC(=O)[C@H](CCCCNC(=O)N2CCN(CC(=O)O)CC2)NC(=O)[C@H](Cc2cn(C)c3c(Cl)cccc23)NC(=O)[C@H](CCC(=O)O)N(C)C(=O)[C@H](CCCC(N)=O)NC(=O)[C@H](C2CCC2)NC(=O)[C@H](CC(N)=O)NC(=O)[C@H](Cc2cccnc2)N(C)C(=O)[C@@H](Cc2cccc(C(N)=O)c2)NC(=O)CSC[C@@H](C(=O)N[C@H](CCCCNC(=O)CN2CCN(CC(=O)O)CCN(CC(=O)O)CCN(CC(=O)O)CC2)C(N)=O)NC(=O)[C@H](CCCC(N)=O)NC1=O.[Lu+3] [PDC_EphA2-00019440-C302] ({CH2CO}-[dPhe(3-CONH2)][NMe3Pal]N[Gly(cBu)][Aad](NH2)[NMeE][Trp(1-Me,7-Cl)]K([CO-Piperazinyl(4-CH2COOH)])[Trp(1-Me)]T[Aad](NH2)C[dK](DOTA)-NH2; thioether N-12)	< 1 nM	8.18e-11 M⁻¹	–	–	–	–	–	–
C[C@@H](O)[C@@H]1NC(=O)[C@H](Cc2cn(C)c3ccccc23)NC(=O)[C@H](CCCCNC(=O)N2CCN(CC(=O)O)CC2)NC(=O)[C@H](Cc2cn(C)c3c(Cl)cccc23)NC(=O)[C@H](CCC(=O)O)N(C)C(=O)[C@H](CCCC(N)=O)NC(=O)[C@H](C2CCC2)NC(=O)[C@H](CC(N)=O)NC(=O)[C@H](Cc2cccnc2)N(C)C(=O)[C@@H](Cc2cccc(C(N)=O)c2)NC(=O)CSC[C@@H](C(=O)N[C@H](CCCCNC(=O)CN2CCN(CC(=O)O)CCN(CC(=O)O)CCN(CC(=O)O)CC2)C(N)=O)NC(=O)[C@H](CCCCNC(=N)N)NC1=O.[Lu+3] [PDC_EphA2-00019443-C302] ({CH2CO}-[dPhe(3-CONH2)][NMe3Pal]N[Gly(cBu)][Aad](NH2)[NMeE][Trp(1-Me,7-Cl)]K([CO-Piperazinyl(4-CH2COOH)])[Trp(1-Me)]T[hArg]C[dK](DOTA)-NH2; thioether N-12)	< 1 nM	2.7e-11 M⁻¹	–	–	–	–	–	–
